We go through 1 substance from publication PMC8230831.

The target of this assay is CXC chemokine receptor 4 (CXCR4) (human (endogenous in HeLa)) (UniProt P61073). The note with it: scale: apoptotic figures per 400 x magnification tumor field.
UniProt P61073, sequence (P61073 whole entry): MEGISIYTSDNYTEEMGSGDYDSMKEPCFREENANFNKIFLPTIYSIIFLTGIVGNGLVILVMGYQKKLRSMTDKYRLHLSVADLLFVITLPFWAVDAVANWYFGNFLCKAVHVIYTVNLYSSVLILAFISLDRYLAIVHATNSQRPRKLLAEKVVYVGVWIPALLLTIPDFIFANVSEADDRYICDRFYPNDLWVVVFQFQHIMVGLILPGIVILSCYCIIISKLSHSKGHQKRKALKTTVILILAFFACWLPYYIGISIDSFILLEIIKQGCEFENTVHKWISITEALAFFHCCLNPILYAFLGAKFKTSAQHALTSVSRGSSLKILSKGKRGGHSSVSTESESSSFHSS

Turning to “biparatopic EPIX4-(RK)-GFP-H6/T22-GFP-H6 NPs (complex)”, the apoptotic figures in CXCR4+ M5 colorectal tumors of mice, 0.5 to 24 h after a single 200 µg i.v. dose (histology); peak at 24 h was 30.
